Measured values reported in paper PMC3458870 (PLoS ONE, 2012).

Biological target: the molecule itself
Test: SEC

B1: truncated form of human PAH including the catalytic domain, hPAH(Gly103-Gln428) (domain or fragment)
chain: GATVHELSRDKKKDTVPWFPRTIQELDRFANQILSYGAELDADHPGFKDPVYRARRKQFADIAYNYRHGQPIPRVEYMEEEKKTWGTVFKTLKSLYKTHACYEYNHIFPLLEKYCGFHEDNIPQLEDVSQFLQTCTGFRLRPVAGLLSSRDFLGGLAFRVFHCTQYIRHGSKPMYTPEPDICHELLGHVPLFSDRSFAQFSQEIGLASLGAPDEYIEKLATIYWFTVEFGLCKQGDSIKAYGAGLLSSFGELQYCLSEKPKLLPLELEKTAIQNYTVTEFQPLYYVAESFNDAKEKVRNFAATIPRPFSVRYDPYTQRIEVLDNTQ
Question: For B1, which “stoichiometry N” value is on record?
Answer: Its value is 2.
